Results published in patent US20230106715A1 (BIOSION, published 2023).

Tests used:
[1] = target: T1, human Siglec15-Fc protein (human); test: competitive ELISA: biotin-labeled human Siglec15-Fc in solution, competitor coated benchmark
T1 construct: In house made; also called recombinant human Siglec15 protein with human IgG1 Fc at the C-terminus
Method: The abilities of the anti-Siglec15 antibodies of the disclosure to block benchmark-human Siglec15 binding were measured in a competitive ELISA assay. Briefly, the benchmark was coated on 96-well micro plates at 2 μg/mL in PBS, 100 μl per well, and incubated for 2 hours at 37° C. Then plates were washed once with wash buffer, and blocked with 5% w/v non-fatty milk in PBST overnight at 4° C. The next day, the anti-Siglec15 antibodies of the disclosure or controls were diluted with biotin labeled human Siglec15-Fc protein (prepared in-house with SEQ ID NO: 19, 37 ng/ml in PBST with 2.5% w/v non-fatty milk), starting at 80 nM with a 4-fold serial dilution, and incubated at room temperature for 40 minutes. After plate washing 4 times, the antibody/Siglec15-Fc mixtures were added to benchmark coated plates, 100 μl per well. After incubation at 37° C. for 40 minutes, plates were washed 4 times again using wash buffer. Then the plates were added and incubated with 100 μl/well streptavidin conjugated HRP for 40 minutes at 37° C. […] Finally, TMB was added and the reaction was stopped using 1M H₂SO₄, and the absorbance of each well was read on a microplate reader using dual wavelength mode with 450 nm for TMB and 630 nm as the reference wavelength, then the OD (450-630) values were plotted against antibody concentration. Data was analyzed using Graphpad Prism software and IC₅₀ values were reported.

[2] = target: T2, recombinant human Siglec15-his protein (human, UniProt Q6ZMC9 20-263); test: SPR Biacore T200, antibody captured by anti-mouse IgG, antigen as analyte, 1:1 fit
T2 construct: In house made; Biotin-labeled in the capture ELISA
T2 sequence: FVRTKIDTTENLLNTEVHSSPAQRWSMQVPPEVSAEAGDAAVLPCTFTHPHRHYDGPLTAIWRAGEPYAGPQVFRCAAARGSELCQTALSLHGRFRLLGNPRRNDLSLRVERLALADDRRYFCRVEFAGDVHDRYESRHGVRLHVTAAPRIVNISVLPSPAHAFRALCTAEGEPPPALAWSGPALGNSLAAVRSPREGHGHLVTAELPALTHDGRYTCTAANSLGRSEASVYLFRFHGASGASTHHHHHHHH
Method: (§1) Briefly, goat anti-mouse IgG (GE healthcare, Cat #BR100838, Mouse Antibody Capture Kit) was covalently linked to a CM5 chip (carboxy methyl dextran coated chip from GE healthcare, Cat #BR100530) via primary amines using a standard amine coupling kit (GE healthcare, Pittsburgh, Pa., USA) provided by Biacore. Un-reacted moieties on the biosensor surface were blocked with ethanolamine. The purified mouse anti-Siglec15 antibodies of the disclosure at the concentration of 13.3 nM, were respectively flowed onto the chip at a flow rate of 10 μL/min. Then, serially diluted human Siglec15-his protein (in house made, amino acid sequence set forth in SEQ ID NO: 20), cynomolgus monkey Siglec15-his protein (in house made, amino acid sequence set forth in SEQ ID NO: 21), or mouse Siglec15-his protein (in house made, amino acid sequence set forth in SEQ ID NO: 22), 2-fold dilution in HBS-EP⁺ buffer (provided by Biacore) starting at 80 nM, were flowed onto the chip at a flow rate of 30 μL/min. The antigen-antibody association kinetics was followed for 2 minutes and the dissociation kinetics was followed for 10 minutes. The association and dissociation curves were fit to a 1:1 Langmuir binding model using BIAcore evaluation software.

[3] = target: T3, mouse Siglec15-his protein (mouse); test: as above
T3 construct: In house made
T3 chain: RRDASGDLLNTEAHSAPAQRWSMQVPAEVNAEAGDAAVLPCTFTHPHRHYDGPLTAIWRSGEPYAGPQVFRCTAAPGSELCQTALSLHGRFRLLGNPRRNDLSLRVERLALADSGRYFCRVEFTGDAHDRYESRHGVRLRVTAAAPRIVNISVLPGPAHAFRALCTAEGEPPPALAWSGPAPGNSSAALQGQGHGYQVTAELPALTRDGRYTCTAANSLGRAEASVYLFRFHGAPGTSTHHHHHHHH
Method: as §1

[4] = target: T4, cynomolgus monkey Siglec15-his protein (cynomolgus monkey); test: as above
T4 construct: In house made; also called Cynomolgus Siglec15-his; cynomolgus Siglec15
T4 chain: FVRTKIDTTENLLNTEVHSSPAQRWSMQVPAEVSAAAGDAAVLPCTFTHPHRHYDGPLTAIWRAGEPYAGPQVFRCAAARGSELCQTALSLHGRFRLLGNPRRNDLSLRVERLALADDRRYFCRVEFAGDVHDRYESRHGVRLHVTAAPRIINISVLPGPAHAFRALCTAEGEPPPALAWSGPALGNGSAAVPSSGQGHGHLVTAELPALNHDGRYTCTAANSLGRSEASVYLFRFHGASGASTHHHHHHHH
Method: as §1

B1: anti-Siglec15 benchmark (ch5G12) (antibody, human IgG1, kappa, V domains shown)
VH: QVQLQQPGAELVKPGASVKMSCKASGYTFTSYWITWVIQRPGQGLEWIGDIYCGSDTMHYNEKFKNKATLTVDTSSSTAYMQLSSLTSEDSAVYYCARWWDYGSSYDYFDYWGQGTTLTVSS
VL: DIKMTQSPSSMYASLGERVTITCKASQDINSYLSWFQQKPGKSPKTLIYRANRLVDGVPSRFSGSGSGQDYSLTISSLEYEDMGIYYCLQYDEFPYTFGGGTKLEIKR
notes: ch5G12 (US 20190202912A1); also called BM; Siglec15-ch5G9
IC50 [1]: 253 pM

B2: A2A5C7E8 (antibody, V domains shown)
VH: EVQLVQSGAEVKKPGESLRISCKGSGYSFTTYWISWVRQMPGKGLEWMGLIDPSDSYTNYSPSFQGHVTISTDKSISTAYLQWSSLKASDTAMYYCARGGYYGSEEDYWGQGTLVTVSS
VL: EIVLTQSPGTLSLSPGERATLSCRASQSVSSSRLAWFQQKSGQAPRLLIFDASSRATGIPDRFSGSGSGTDFTLTISRLEPEDFAVYYCQQYGSSPRTFGQGTKVEFK
notes: Fully human antibody from transgenic mouse hybridoma; also called A2A5C7E8-1
IC50 [1]: 83.6 pM

B3: B2D7H7A3C1 (antibody, V domains shown)
VH: QVQLQQSGAELVRPGTSVQMSCKAAGYTFTNYWIGWVKQRPGHGLEWVGDIHPGINYTNNNEKFRGKATLTADTSSNTAYMQLRGLTSDDSAIYYCARVDYDYDGSYIMDYWGQGTSVTVSS
VL: QIVLSQSPALLSASPGEKVTMTCRASSSVSYMYWYQQKPGSSPKPWIYATSNLTSGVPARFSGSGSGTSYSLTISRVEAEDAATYFCQQWNSKPWTFGGGSKLEIR
notes: Mouse monoclonal antibody from hybridoma; also called mouse B2D7H7A3C1
Kd [2]: 35.2 pM
koff [2]: 5.46e-05 s⁻¹
kon [2]: 1.55e+06 M⁻¹ s⁻¹
Kd [3]: 337 pM
koff [3]: 0.00445 s⁻¹
kon [3]: 1.32e+07 M⁻¹ s⁻¹
Kd [4]: 476 pM
koff [4]: 0.000338 s⁻¹
kon [4]: 711000 M⁻¹ s⁻¹

B4: B2G12H3E8 (antibody, V domains shown)
VH: QVQLKQSGAELVRPGTSVQMSCKAVGYTFTNYWIGWVKQRPGHGLEWVGDIHPGINYTNNNEKFRGKATLTADTSSSTAYMQLRGLTSDDSAIYYCARVDYDYDGSYIMDYWGQGTSVTVSS
VL: QIVLSQSPALLSASPGEKVTMTCRASSSVSYMYWYQQKPGSSPKPWIYATSNLTSGVPARFSGSGSGTSYSLTISRVEAEDAATYFCQQWNSKPWTFGGGSKLEIR
notes: Mouse monoclonal antibody from hybridoma; also called mouse B2G12H3E8
Kd [2]: 8.58 pM
koff [2]: 1.76e-05 s⁻¹
kon [2]: 2.05e+06 M⁻¹ s⁻¹
Kd [3]: 423 pM
koff [3]: 0.0108 s⁻¹
kon [3]: 2.55e+07 M⁻¹ s⁻¹
Kd [4]: 372 pM
koff [4]: 0.000371 s⁻¹
kon [4]: 996000 M⁻¹ s⁻¹

B5: B2H2H1H7 (antibody, V domains shown)
VH: QVQLQQSGAELVRPGTSVQMSCKAAGYTFTNYWIGWVKQRPGHGLEWVGDIHPGINYTNNNEKFRGKATLTADTSSSTAYMQLRGLTSDDSAIYYCARVDYDYDGSYIMDYWGQGTSVTVSS
VL: QIILSQSPALLSASPGEKVTMTCRASSSVSYMYWYQQKPGSSPKPWIYATSNLTSGVPARFSGSGSGTSYSLTISRVEAEDAATYFCQQWNSKPWTFGGGSRLEIR
notes: Mouse monoclonal antibody from hybridoma; also called mouse B2H2H1H7; B2H2H1A7
Kd [2]: 16 pM
koff [2]: 3.18e-05 s⁻¹
kon [2]: 1.99e+06 M⁻¹ s⁻¹
Kd [3]: 390 pM
koff [3]: 0.00737 s⁻¹
kon [3]: 1.89e+07 M⁻¹ s⁻¹
Kd [4]: 405 pM
koff [4]: 0.000352 s⁻¹
kon [4]: 869000 M⁻¹ s⁻¹
